Data as given in CN105384819A (UNIV CHINA PHARMA, dated 2016).

Target: T1, rhDLL4(重组人DLL4) (human, UniProt Q9NR61 27-524, limits assumed)
T1 construct: Immobilised on a CM5 chip for SPR and coated on 96-well plates for the MTT assay; also called 人DLL4抗原; DLL4抗原
Assay: SPR, Biacore X100, rhDLL4 immobilised on CM5 chip, antibody injected at 0.098-12.5 nM

T1 sequence (Q9NR61 27-524 limits assumed): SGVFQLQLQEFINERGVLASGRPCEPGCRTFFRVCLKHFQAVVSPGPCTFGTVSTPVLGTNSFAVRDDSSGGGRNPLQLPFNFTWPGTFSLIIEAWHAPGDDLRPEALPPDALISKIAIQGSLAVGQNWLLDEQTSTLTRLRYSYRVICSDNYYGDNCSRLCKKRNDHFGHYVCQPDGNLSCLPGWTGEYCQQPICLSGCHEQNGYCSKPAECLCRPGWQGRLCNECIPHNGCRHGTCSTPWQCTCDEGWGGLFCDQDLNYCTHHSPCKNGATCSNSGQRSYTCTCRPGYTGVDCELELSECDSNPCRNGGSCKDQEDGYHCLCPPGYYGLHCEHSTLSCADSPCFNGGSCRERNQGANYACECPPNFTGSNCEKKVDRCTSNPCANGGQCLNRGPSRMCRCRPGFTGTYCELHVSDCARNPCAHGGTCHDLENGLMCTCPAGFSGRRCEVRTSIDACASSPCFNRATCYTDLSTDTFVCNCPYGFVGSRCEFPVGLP

Kd: 2.26 pM
B1: 抗人DLL4人源化抗体H3L2 (antibody, human IgG1, lambda, V domains shown)
VH: QVQLVQSGAEVKKPGSSVKVSCKASGYTFSGYWMQWIKQAPGQGLEWIGAIYPGDGDTRYTQKFKGRATLTADKSTSTAYMELSSLRSEDTAVYYCAGGNFFFDYWGQGTLVTVSS
VL: EIVITQSPDFQSVTPKEKVTITCSVSSSISSSYLHWYQQKPDQSPKPWIYGTSNLASGVPSRFSGSGSGTDYTLTINSLEAEDAATYYCQQWSSSPLTFGQGTKLEIKV
notes: also called 抗DLL4人源化抗体
